# B1: GpH7-A5/GpH7-B3 variant A330_09D/GpL16-k0 (antibody, human IgG1, kappa)
# heavy 1: not shown
# heavy 2: not shown
# light: DIVMTQSPLSLPVTPGEPASISCQASESLVHSNRNTYLHWYLQKPGQSPQLLIYKVSNRFSGVPDRFSGSGSGTDFTLKISRVEAEDVGVYYCSQNTHVPPTFGQGTKVEIERTVAAPSVFIFPPSDEQLKSGTASVVCLLNNFYPREAKVQWKVDNALQSGNSQESVTEQDSKDSTYSLSSTLTLSKADYEKHKVYACEVTHQGLSSPVTKSFNRGEC
# notes: heterodimerized anti-glypican-3 IgG1; alteration in the GpH7-B3 chain only; also called He Ab
# B2: GpH7-A5/GpH7-B3 variant A330_10E/GpL16-k0 (antibody, human IgG1, kappa)
# heavy 1: not shown
# heavy 2: not shown
# light: B1 light
# notes: as for B1
# B3: GpH7-A5/GpH7-B3 variant A330_11K/GpL16-k0 (antibody, human IgG1, kappa)
# heavy 1: not shown
# heavy 2: not shown
# light: B1 light
# notes: as for B1
# B4: GpH7-A5/GpH7-B3 variant A330_14T/GpL16-k0 (antibody, human IgG1, kappa)
# heavy 1: not shown
# heavy 2: not shown
# light: B1 light
# notes: as for B1
# B5: GpH7-A5/GpH7-B3 variant A330_15Y/GpL16-k0 (antibody, human IgG1, kappa)
# heavy 1: not shown
# heavy 2: not shown
# light: B1 light
# notes: as for B1
# B6: GpH7-A5/GpH7-B3 variant A330_16H/GpL16-k0 (antibody, human IgG1, kappa)
# heavy 1: not shown
# heavy 2: not shown
# light: B1 light
# notes: as for B1
# B7: GpH7-A5/GpH7-B3 variant A330_18N/GpL16-k0 (antibody, human IgG1, kappa)
# heavy 1: not shown
# heavy 2: not shown
# light: B1 light
# notes: as for B1
# B8: GpH7-A5/GpH7-B3 variant A330_19Q/GpL16-k0 (antibody, human IgG1, kappa)
# heavy 1: not shown
# heavy 2: not shown
# light: B1 light
# notes: as for B1
# B9: GpH7-A5/GpH7-B3 variant A330_20W/GpL16-k0 (antibody, human IgG1, kappa)
# heavy 1: not shown
# heavy 2: not shown
# light: B1 light
# notes: as for B1
# B10: GpH7-A5/GpH7-B3 variant D270_02A/GpL16-k0 (antibody, human IgG1, kappa)
# heavy 1: not shown
# heavy 2: not shown
# light: B1 light
# notes: as for B1
# B11: GpH7-A5/GpH7-B3 variant D270_03V/GpL16-k0 (antibody, human IgG1, kappa)
# heavy 1: not shown
# heavy 2: not shown
# light: B1 light
# notes: as for B1
# B12: GpH7-A5/GpH7-B3 variant D270_04F/GpL16-k0 (antibody, human IgG1, kappa)
# heavy 1: not shown
# heavy 2: not shown
# light: B1 light
# notes: as for B1
# B13: GpH7-A5/GpH7-B3 variant D270_05P/GpL16-k0 (antibody, human IgG1, kappa)
# heavy 1: not shown
# heavy 2: not shown
# light: B1 light
# notes: as for B1
# B14: GpH7-A5/GpH7-B3 variant D270_06M/GpL16-k0 (antibody, human IgG1, kappa)
# heavy 1: not shown
# heavy 2: not shown
# light: B1 light
# notes: as for B1
# B15: GpH7-A5/GpH7-B3 variant D270_07I/GpL16-k0 (antibody, human IgG1, kappa)
# heavy 1: not shown
# heavy 2: not shown
# light: B1 light
# notes: as for B1
# B16: GpH7-A5/GpH7-B3 variant D270_08L/GpL16-k0 (antibody, human IgG1, kappa)
# heavy 1: not shown
# heavy 2: not shown
# light: B1 light
# notes: as for B1
# B17: GpH7-A5/GpH7-B3 variant D270_11K/GpL16-k0 (antibody, human IgG1, kappa)
# heavy 1: not shown
# heavy 2: not shown
# light: B1 light
# notes: as for B1
# B18: GpH7-A5/GpH7-B3 variant D270_12R/GpL16-k0 (antibody, human IgG1, kappa)
# heavy 1: not shown
# heavy 2: not shown
# light: B1 light
# notes: as for B1
# B19: GpH7-A5/GpH7-B3 variant D270_13S/GpL16-k0 (antibody, human IgG1, kappa)
# heavy 1: not shown
# heavy 2: not shown
# light: B1 light
# notes: as for B1
# B20: GpH7-A5/GpH7-B3 variant D270_14T/GpL16-k0 (antibody, human IgG1, kappa)
# heavy 1: not shown
# heavy 2: not shown
# light: B1 light
# notes: as for B1
# B21: GpH7-A5/GpH7-B3 variant D270_15Y/GpL16-k0 (antibody, human IgG1, kappa)
# heavy 1: not shown
# heavy 2: not shown
# light: B1 light
# notes: as for B1
# B22: GpH7-A5/GpH7-B3 variant D270_16H/GpL16-k0 (antibody, human IgG1, kappa)
# heavy 1: not shown
# heavy 2: not shown
# light: B1 light
# notes: as for B1
# B23: GpH7-A5/GpH7-B3 variant D270_18N/GpL16-k0 (antibody, human IgG1, kappa)
# heavy 1: not shown
# heavy 2: not shown
# light: B1 light
# notes: as for B1
# B24: GpH7-A5/GpH7-B3 variant D270_19Q/GpL16-k0 (antibody, human IgG1, kappa)
# heavy 1: not shown
# heavy 2: not shown
# light: B1 light
# notes: as for B1
# Biological target: T1, FcγRIa extracellular domain with C-terminal His tag (human, UniProt P12314 16-292)
# T1 construct: extracellular domain; soluble receptor expressed in FreeStyle293 cells, used as analyte in Biacore; also called FcgRI; 1a; not shown: His tag attached to the C terminus
# Test: SPR (Biacore), antibody captured on antigen peptide chip, FcγR as analyte; relative binding
# T1 sequence (P12314 16-292): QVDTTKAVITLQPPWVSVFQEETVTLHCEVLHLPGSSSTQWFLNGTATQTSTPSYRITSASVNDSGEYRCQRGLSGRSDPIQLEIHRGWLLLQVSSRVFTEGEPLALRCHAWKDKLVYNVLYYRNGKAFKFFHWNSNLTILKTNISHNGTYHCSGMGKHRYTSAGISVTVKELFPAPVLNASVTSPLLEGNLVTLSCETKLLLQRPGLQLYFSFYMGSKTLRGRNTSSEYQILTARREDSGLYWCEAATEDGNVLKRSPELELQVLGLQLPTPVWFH
row,Binder,He/Con_1a
1,B1,109 % of control GpH7-A5/GpH7-B3/GpL16-k0 (=100)
2,B2,107 % of control GpH7-A5/GpH7-B3/GpL16-k0 (=100)
3,B3,103 % of control GpH7-A5/GpH7-B3/GpL16-k0 (=100)
4,B4,105 % of control GpH7-A5/GpH7-B3/GpL16-k0 (=100)
5,B5,105 % of control GpH7-A5/GpH7-B3/GpL16-k0 (=100)
6,B6,106 % of control GpH7-A5/GpH7-B3/GpL16-k0 (=100)
7,B7,106 % of control GpH7-A5/GpH7-B3/GpL16-k0 (=100)
8,B8,105 % of control GpH7-A5/GpH7-B3/GpL16-k0 (=100)
9,B9,108 % of control GpH7-A5/GpH7-B3/GpL16-k0 (=100)
10,B10,71.5 % of control GpH7-A5/GpH7-B3/GpL16-k0 (=100)
11,B11,77.9 % of control GpH7-A5/GpH7-B3/GpL16-k0 (=100)
12,B12,78.1 % of control GpH7-A5/GpH7-B3/GpL16-k0 (=100)
13,B13,67.1 % of control GpH7-A5/GpH7-B3/GpL16-k0 (=100)
14,B14,78.8 % of control GpH7-A5/GpH7-B3/GpL16-k0 (=100)
15,B15,74.6 % of control GpH7-A5/GpH7-B3/GpL16-k0 (=100)
16,B16,73.5 % of control GpH7-A5/GpH7-B3/GpL16-k0 (=100)
17,B17,58.4 % of control GpH7-A5/GpH7-B3/GpL16-k0 (=100)
18,B18,66.3 % of control GpH7-A5/GpH7-B3/GpL16-k0 (=100)
19,B19,75.3 % of control GpH7-A5/GpH7-B3/GpL16-k0 (=100)
20,B20,70.6 % of control GpH7-A5/GpH7-B3/GpL16-k0 (=100)
21,B21,68.5 % of control GpH7-A5/GpH7-B3/GpL16-k0 (=100)
22,B22,66 % of control GpH7-A5/GpH7-B3/GpL16-k0 (=100)
23,B23,67.8 % of control GpH7-A5/GpH7-B3/GpL16-k0 (=100)
24,B24,78.2 % of control GpH7-A5/GpH7-B3/GpL16-k0 (=100)

# Biological target: T2, FcγRIIb extracellular domain with C-terminal His tag (human, UniProt P31994 43-217)
# T2 construct: extracellular domain; soluble receptor expressed in FreeStyle293 cells, used as analyte in Biacore; also called FcgRIIb; 2b; not shown: His tag attached to the C terminus
# T2 sequence (looked up): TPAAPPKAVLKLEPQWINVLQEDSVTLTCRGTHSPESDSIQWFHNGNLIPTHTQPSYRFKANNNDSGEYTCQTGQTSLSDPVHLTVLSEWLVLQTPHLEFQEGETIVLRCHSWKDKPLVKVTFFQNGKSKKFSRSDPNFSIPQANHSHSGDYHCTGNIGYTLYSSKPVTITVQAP
# Test: as above
row,Binder,He/Con_2b
1,B1,55.6 % of control GpH7-A5/GpH7-B3/GpL16-k0 (=100)
2,B2,70.1 % of control GpH7-A5/GpH7-B3/GpL16-k0 (=100)
3,B3,95 % of control GpH7-A5/GpH7-B3/GpL16-k0 (=100)
4,B4,77.9 % of control GpH7-A5/GpH7-B3/GpL16-k0 (=100)
5,B5,95 % of control GpH7-A5/GpH7-B3/GpL16-k0 (=100)
6,B6,87.6 % of control GpH7-A5/GpH7-B3/GpL16-k0 (=100)
7,B7,63.7 % of control GpH7-A5/GpH7-B3/GpL16-k0 (=100)
8,B8,90.8 % of control GpH7-A5/GpH7-B3/GpL16-k0 (=100)
9,B9,76.1 % of control GpH7-A5/GpH7-B3/GpL16-k0 (=100)
10,B10,48.3 % of control GpH7-A5/GpH7-B3/GpL16-k0 (=100)
11,B11,39.5 % of control GpH7-A5/GpH7-B3/GpL16-k0 (=100)
12,B12,53.1 % of control GpH7-A5/GpH7-B3/GpL16-k0 (=100)
13,B13,13.9 % of control GpH7-A5/GpH7-B3/GpL16-k0 (=100)
14,B14,48.2 % of control GpH7-A5/GpH7-B3/GpL16-k0 (=100)
15,B15,41.5 % of control GpH7-A5/GpH7-B3/GpL16-k0 (=100)
16,B16,53.6 % of control GpH7-A5/GpH7-B3/GpL16-k0 (=100)
17,B17,20.3 % of control GpH7-A5/GpH7-B3/GpL16-k0 (=100)
18,B18,18.3 % of control GpH7-A5/GpH7-B3/GpL16-k0 (=100)
19,B19,44.2 % of control GpH7-A5/GpH7-B3/GpL16-k0 (=100)
20,B20,57.8 % of control GpH7-A5/GpH7-B3/GpL16-k0 (=100)
21,B21,44.9 % of control GpH7-A5/GpH7-B3/GpL16-k0 (=100)
22,B22,47.2 % of control GpH7-A5/GpH7-B3/GpL16-k0 (=100)
23,B23,40.3 % of control GpH7-A5/GpH7-B3/GpL16-k0 (=100)
24,B24,48 % of control GpH7-A5/GpH7-B3/GpL16-k0 (=100)

# Source: patent US20180155451A1 (published 2018)
